Patent US12060424 (AMUNIX PHARMACEUTICALS, dated 2024)

Columns and labels:
[1] = molecular target: human CD3 on cells (CD3+ Jurkat cells; purified human CD3 positive T cells) (human, UniProt P07766 23-207); assay: cell-based or functional assay
[2] = molecular target: T1, recombinant human EpCAM (rhEpCAM), coated on ELISA plate (human, UniProt P16422 24-265); assay: sandwich ELISA: rhEpCAM coated, peroxidase-conjugated protein L detection
T1 construct: Bought reagent
T1 sequence (looked up): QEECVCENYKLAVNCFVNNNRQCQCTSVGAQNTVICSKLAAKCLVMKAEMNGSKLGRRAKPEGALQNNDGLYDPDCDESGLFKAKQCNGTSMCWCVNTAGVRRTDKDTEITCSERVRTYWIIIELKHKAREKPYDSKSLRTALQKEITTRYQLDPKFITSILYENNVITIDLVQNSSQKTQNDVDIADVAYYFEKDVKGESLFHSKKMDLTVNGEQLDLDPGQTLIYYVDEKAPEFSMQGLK

[3] = molecular target: recombinant human CD3 epsilon & delta (rhCD3ε & δ), Creative BioMart cat #CD3E&CD3D-219H (human) (UniProt P07766); assay: sandwich ELISA: rhCD3ε & δ coated, peroxidase-conjugated protein L detection
[4] = molecular target: recombinant human CD3 epsilon & delta (rhCD3ε & δ), Creative BioMart cat #CD3E&CD3D-219H (human) (UniProt P07766); assay: SPR (Biacore 3000), His-tagged CD3εδ coupled to chip, ProTIA as analyte at 5-6 concentrations
[5] = molecular target: T2, Fc-tagged EpCAM (R&D Systems, cat #960-EP-050), human, coupled to SPR chip (human, UniProt P16422 24-265); assay: SPR (Biacore 3000), Fc-tagged EpCAM coupled to chip, ProTIA as analyte at 5-6 concentrations
T2 construct: Bought reagent; also called human EpCAM; EpCAM chip; not shown: Fc tag of the bought reagent
T2 sequence (looked up): T1 sequence (looked up)

[6] = molecular target: T3, human EpCAM expressed on cells (CHO cells stably transfected with human EpCAM); EpCAM-positive human tumor … (human, UniProt P16422 24-314); assay: competition flow cytometry on hEp-CHO 4-12B cells
T3 construct: whole, on cells; also called EpCAM-CHO; hEp-CHO 4-12B
T3 sequence (looked up): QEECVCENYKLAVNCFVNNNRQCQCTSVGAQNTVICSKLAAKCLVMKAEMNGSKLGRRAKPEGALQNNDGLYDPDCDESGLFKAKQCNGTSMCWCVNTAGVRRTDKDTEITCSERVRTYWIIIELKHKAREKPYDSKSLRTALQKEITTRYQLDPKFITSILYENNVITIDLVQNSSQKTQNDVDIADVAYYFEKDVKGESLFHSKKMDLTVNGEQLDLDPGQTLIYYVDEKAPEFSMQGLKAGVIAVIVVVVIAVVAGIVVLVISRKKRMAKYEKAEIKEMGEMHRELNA

[7] = molecular target: T3, human EpCAM expressed on cells (CHO …); assay: cell-based or functional assay
[8] = molecular target: recombinant human CD3 epsilon & delta (rhCD3ε & δ), Creative BioMart cat #CD3E&CD3D-219H (human) (UniProt P07766); assay: sandwich ELISA: rhCD3ε & δ coated, biotinylated anti-XTEN antibody detection

Chain of recombinant human CD3 epsilon & delta (rhCD3ε & δ), Creative BioMart cat #CD3E&CD3D-219H (human) (P07766 23-126, stated change not applied, chain 1 of 2): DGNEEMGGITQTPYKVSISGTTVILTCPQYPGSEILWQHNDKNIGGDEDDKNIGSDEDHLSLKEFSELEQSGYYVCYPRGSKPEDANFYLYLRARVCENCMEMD
Chain of recombinant human CD3 epsilon & delta (rhCD3ε & δ), Creative BioMart cat #CD3E&CD3D-219H (human) (P04234 22-105, stated change not applied, chain 2 of 2, further chain): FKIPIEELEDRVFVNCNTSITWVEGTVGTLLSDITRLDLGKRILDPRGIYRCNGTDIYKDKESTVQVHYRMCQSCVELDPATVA
Chain of human CD3 on cells (CD3+ Jurkat cells; purified human CD3 positive T cells) (P07766 23-207): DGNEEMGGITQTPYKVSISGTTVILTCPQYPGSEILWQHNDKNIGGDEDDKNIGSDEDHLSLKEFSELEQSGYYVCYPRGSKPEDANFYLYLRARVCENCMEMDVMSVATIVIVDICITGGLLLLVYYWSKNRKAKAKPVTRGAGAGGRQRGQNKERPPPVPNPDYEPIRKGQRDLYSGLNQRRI

B1: AC1476 aEpCAM-aCD3-BSRS1-XTEN_AE864-His(6), protease-untreated (uncleaved) anti-EpCAM×anti-CD3 ProTIA (bispecific antibody)
chain: DIQMTQSPSSLSASVGDRVTITCRSTKSLLHSNGITYLYWYQQKPGKAPKLLIYQMSNLASGVPSRFSSSGSGTDFTLTISSLQPEDFATYYCAQNLEIPRTFGQGTKVEIKGATPPETGAETESPGETTGGSAESEPPGEGQVQLVQSGPGLVQPGGSVRISCAASGYTFTNYGMNWVKQAPGKGLEWMGWINTYTGESTYADSFKGRFTFSLDTSASAAYLQINSLRAEDTAVYYCARFAIKGDYWGQGTLLTVSSGGGGSDIQMTQSPSSLSASVGDRVTITCRASQDIRNYLNWYQQKPGKAPKLLIYYTSRLESGVPSRFSGSGSGTDYTLTISSLQPEDFATYYCQQGNTLPWTFGQGTKVEIKGATPPETGAETESPGETTGGSAESEPPGEGEVQLVESGGGLVQPGGSLRLSCAASGYSFTGYTMNWVRQAPGKGLEWVALINPYKGVSTYNQKFKDRFTISVDKSKNTAYLQMNSLRAEDTAVYYCARSGYYGDSDWYFDVWGQGTLVTVSSGTAEAASASGLSGRSDNHSPLGLAGSPGSPAGSPTSTEEGTSESATPESGPGTSTEPSEGSAPGSPAGSPTSTEEGTSTEPSEGSAPGTSTEPSEGSAPGTSESATPESGPGSEPATSGSETPGSEPATSGSETPGSPAGSPTSTEEGTSESATPESGPGTSTEPSEGSAPGTSTEPSEGSAPGSPAGSPTSTEEGTSTEPSEGSAPGTSTEPSEGSAPGTSESATPESGPGTSTEPSEGSAPGTSESATPESGPGSEPATSGSETPGTSTEPSEGSAPGTSTEPSEGSAPGTSESATPESGPGTSESATPESGPGSPAGSPTSTEEGTSESATPESGPGSEPATSGSETPGTSESATPESGPGTSTEPSEGSAPGTSTEPSEGSAPGTSTEPSEGSAPGTSTEPSEGSAPGTSTEPSEGSAPGTSTEPSEGSAPGSPAGSPTSTEEGTSTEPSEGSAPGTSESATPESGPGSEPATSGSETPGTSESATPESGPGSEPATSGSETPGTSESATPESGPGTSTEPSEGSAPGTSESATPESGPGSPAGSPTSTEEGSPAGSPTSTEEGSPAGSPTSTEEGTSESATPESGPGTSTEPSEGSAPGTSESATPESGPGSEPATSGSETPGTSESATPESGPGSEPATSGSETPGTSESATPESGPGTSTEPSEGSAPGSPAGSPTSTEEGTSESATPESGPGSEPATSGSETPGTSESATPESGPGSPAGSPTSTEEGSPAGSPTSTEEGTSTEPSEGSAPGTSESATPESGPGTSESATPESGPGTSESATPESGPGSEPATSGSETPGSEPATSGSETPGSPAGSPTSTEEGTSTEPSEGSAPGTSTEPSEGSAPGSEPATSGSETPGTSESATPESGPGTSTEPSEGSAPGHHHHHH
notes: Single chain: anti-EpCAM scFv, anti-CD3 scFv, release segment BSRS-1, XTEN864, His6; also called ProTIA-X
EC50, LDH release cytotoxicity, purified human CD3 positive T cells with OVCAR-3 cells 5:1 [1]: 0.0007 nM | EC50, LDH release cytotoxicity, purified human CD3 positive T cells with SK-OV-3 cells 5:1 [1]: 0.134 nM | EC50 [2]: 0.28 nM | fold hindrance of binding by XTEN864 (against the protease-treated ProTIA) [2]: ≥ 2.3 fold | EC50 [3]: 1.8 nM | fold hindrance of binding by XTEN864 (against the cleaved and released anti-CD3scFv portion) [3]: 5.8 fold | Kd [4]: 15.3 nM | Kd [5]: 11.4 nM

B2: AC1952 anti-human EpCAM×anti-human CD3 ProTIA with two XTEN, RSR-2295, uncleaved (bispecific antibody)
chain: SPAGSPTSTEEGTSESATPESGPGTSTEPSEGSAPGTSESATPESGPGSEPATSGSETPGTSESATPESGPGSEPATSGSETPGTSESATPESGPGTSTEPSEGSAPGSPAGSPTSTEEGTSESATPESGPGSEPATSGSETPGTSESATPESGPGSPAGSPTSTEEGSPAGSPTSTEEGTSTEPSEGSAPGTSESATPESGPGTSESATPESGPGTSESATPESGPGSEPATSGSETPGSEPATSGSETPGSPAGSPTSTEEGTSTEPSEGSAPGTSTEPSEGSAPGGSAPEAGRSANHTPAGLTGPATSGSETPGTDIQMTQSPSSLSASVGDRVTITCRSTKSLLHSNGITYLYWYQQKPGKAPKLLIYQMSNLASGVPSRFSSSGSGTDFTLTISSLQPEDFATYYCAQNLEIPRTFGQGTKVEIKGATPPETGAETESPGETTGGSAESEPPGEGQVQLVQSGPGLVQPGGSVRISCAASGYTFTNYGMNWVKQAPGKGLEWMGWINTYTGESTYADSFKGRFTFSLDTSASAAYLQINSLRAEDTAVYYCARFAIKGDYWGQGTLLTVSSGGGGSELVVTQEPSLTVSPGGTVTLTCRSSTGAVTTSNYANWVQQKPGQAPRGLIGGTNKRAPGTPARFSGSLLGGKAALTLSGVQPEDEAEYYCALWYSNLWVFGGGTKLTVLGATPPETGAETESPGETTGGSAESEPPGEGEVQLLESGGGLVQPGGSLKLSCAASGFTFNTYAMNWVRQAPGKGLEWVARIRSKYNNYATYYADSVKDRFTISRDDSKNTAYLQMNNLKTEDTAVYYCVRHGNFGNSYVSWFAYWGQGTLVTVSSGTAEAASASGEAGRSANHTPAGLTGPPGSPAGSPTSTEEGTSESATPESGPGTSTEPSEGSAPGSPAGSPTSTEEGTSTEPSEGSAPGTSTEPSEGSAPGTSESATPESGPGSEPATSGSETPGSEPATSGSETPGSPAGSPTSTEEGTSESATPESGPGTSTEPSEGSAPGTSTEPSEGSAPGSPAGSPTSTEEGTSTEPSEGSAPGTSTEPSEGSAPGTSESATPESGPGTSTEPSEGSAPGTSESATPESGPGSEPATSGSETPGTSTEPSEGSAPGTSTEPSEGSAPGTSESATPESGPGTSESATPESGPGSPAGSPTSTEEGTSESATPESGPGSEPATSGSETPGTSESATPESGPGTSTEPSEGSAPGTSTEPSEGSAPGTSTEPSEGSAPGTSTEPSEGSAPGTSTEPSEGSAPGTSTEPSEGSAPGSPAGSPTSTEEGTSTEPSEGSAPGTSESATPESGPGSEPATSGSETPGTSESATPESGPGSEPATSGSETPGTSESATPESGPGTSTEPSEGSAPGTSESATPESGPGSPAGSPTSTEEGSPAGSPTSTEEGSPAGSPTSTEEGTSESATPESGPGTSTEPSEGSAPGTSESATPESGPGSEPATSGSETPGTSESATPESGPGSEPATSGSETPGTSESATPESGPGTSTEPSEGSAPGSPAGSPTSTEEGTSESATPESGPGSEPATSGSETPGTSESATPESGPGSPAGSPTSTEEGSPAGSPTSTEEGTSTEPSEGSAPGTSESATPESGPGTSESATPESGPGTSESATPESGPGSEPATSGSETPGSEPATSGSETPGSPAGSPTSTEEGTSTEPSEGSAPGTSTEPSEGSAPGSEPATSGSETPGTSESATPESGPGTSTEPSEGSAPGHHHHHH
notes: XTEN-RSR2295-anti-EpCAM scFv-anti-CD3 (hCD3.9) scFv-RSR2295-XTEN-His6
fold weaker binding affinity than cleaved AC1968 [6]: ~100 fold

B3: AC1484 non-cleavable anti-EpCAM×anti-CD3 ProTIA (ProTIA without the release segment cleavage sequence) (bispecific antibody)
chain: DIQMTQSPSSLSASVGDRVTITCRSTKSLLHSNGITYLYWYQQKPGKAPKLLIYQMSNLASGVPSRFSSSGSGTDFTLTISSLQPEDFATYYCAQNLEIPRTFGQGTKVEIKGATPPETGAETESPGETTGGSAESEPPGEGQVQLVQSGPGLVQPGGSVRISCAASGYTFTNYGMNWVKQAPGKGLEWMGWINTYTGESTYADSFKGRFTFSLDTSASAAYLQINSLRAEDTAVYYCARFAIKGDYWGQGTLLTVSSGGGGSDIQMTQSPSSLSASVGDRVTITCRASQDIRNYLNWYQQKPGKAPKLLIYYTSRLESGVPSRFSGSGSGTDYTLTISSLQPEDFATYYCQQGNTLPWTFGQGTKVEIKGATPPETGAETESPGETTGGSAESEPPGEGEVQLVESGGGLVQPGGSLRLSCAASGYSFTGYTMNWVRQAPGKGLEWVALINPYKGVSTYNQKFKDRFTISVDKSKNTAYLQMNSLRAEDTAVYYCARSGYYGDSDWYFDVWGQGTLVTVSSGSPGSPAGSPTSTEEGTSESATPESGPGTSTEPSEGSAPGSPAGSPTSTEEGTSTEPSEGSAPGTSTEPSEGSAPGTSESATPESGPGSEPATSGSETPGSEPATSGSETPGSPAGSPTSTEEGTSESATPESGPGTSTEPSEGSAPGTSTEPSEGSAPGSPAGSPTSTEEGTSTEPSEGSAPGTSTEPSEGSAPGTSESATPESGPGTSTEPSEGSAPGTSESATPESGPGSEPATSGSETPGTSTEPSEGSAPGTSTEPSEGSAPGTSESATPESGPGTSESATPESGPGSPAGSPTSTEEGTSESATPESGPGSEPATSGSETPGTSESATPESGPGTSTEPSEGSAPGTSTEPSEGSAPGTSTEPSEGSAPGTSTEPSEGSAPGTSTEPSEGSAPGTSTEPSEGSAPGSPAGSPTSTEEGTSTEPSEGSAPGTSESATPESGPGSEPATSGSETPGTSESATPESGPGSEPATSGSETPGTSESATPESGPGTSTEPSEGSAPGTSESATPESGPGSPAGSPTSTEEGSPAGSPTSTEEGSPAGSPTSTEEGTSESATPESGPGTSTEPSEGSAPGTSESATPESGPGSEPATSGSETPGTSESATPESGPGSEPATSGSETPGTSESATPESGPGTSTEPSEGSAPGSPAGSPTSTEEGTSESATPESGPGSEPATSGSETPGTSESATPESGPGSPAGSPTSTEEGSPAGSPTSTEEGTSTEPSEGSAPGTSESATPESGPGTSESATPESGPGTSESATPESGPGSEPATSGSETPGSEPATSGSETPGSPAGSPTSTEEGTSTEPSEGSAPGTSTEPSEGSAPGSEPATSGSETPGTSESATPESGPGTSTEPSEGSAPGHHHHHH
notes: Single chain: anti-EpCAM scFv, anti-CD3 scFv, XTEN864, His6, no release segment; also called non-cleavable ProTIA; protease-non-cleavable anti-EpCAM×anti-CD3 ProTIA
EC50, LDH release cytotoxicity, purified human CD3 positive T cells with OVCAR-3 cells 5:1 [1]: 0.086 nM | EC50, LDH release cytotoxicity, purified human CD3 positive T cells with SK-OV-3 cells 5:1 [1]: 2.66 nM | EC50 (pM), caspase 3/7 cytotoxicity, PBMC with HCT-116 cells 10:1 [7]: 1270 pM | EC50 (pM), caspase 3/7 cytotoxicity, PBMC with HPAF-II cells 10:1 [7]: 1170 pM | EC50 (pM), caspase 3/7 cytotoxicity, PBMC with MDA-MB-231 cells 10:1 [7]: 10200 pM | EC50 [2]: 0.32 nM | EC50 [3]: 2.2 nM | EC50 [8]: 0.027 µg/mL | Kd [4]: 27.8 nM | Kd [5]: 10 nM
